From patent US6506889 (UNIVERSITY TECHNOLOGY, dated 2003)
Positions count from the first letter of the chain named.

T1: wild type LIN-45 Raf (yeast two-hybrid fusion) (C. elegans, UniProt Q07292 1-813)
T1 construct: Tested against SUR-8 and against LET-60 Ras and its mutants; The constructs for the two tests may differ; not shown: two-hybrid fusion partner
T1 sequence (looked up): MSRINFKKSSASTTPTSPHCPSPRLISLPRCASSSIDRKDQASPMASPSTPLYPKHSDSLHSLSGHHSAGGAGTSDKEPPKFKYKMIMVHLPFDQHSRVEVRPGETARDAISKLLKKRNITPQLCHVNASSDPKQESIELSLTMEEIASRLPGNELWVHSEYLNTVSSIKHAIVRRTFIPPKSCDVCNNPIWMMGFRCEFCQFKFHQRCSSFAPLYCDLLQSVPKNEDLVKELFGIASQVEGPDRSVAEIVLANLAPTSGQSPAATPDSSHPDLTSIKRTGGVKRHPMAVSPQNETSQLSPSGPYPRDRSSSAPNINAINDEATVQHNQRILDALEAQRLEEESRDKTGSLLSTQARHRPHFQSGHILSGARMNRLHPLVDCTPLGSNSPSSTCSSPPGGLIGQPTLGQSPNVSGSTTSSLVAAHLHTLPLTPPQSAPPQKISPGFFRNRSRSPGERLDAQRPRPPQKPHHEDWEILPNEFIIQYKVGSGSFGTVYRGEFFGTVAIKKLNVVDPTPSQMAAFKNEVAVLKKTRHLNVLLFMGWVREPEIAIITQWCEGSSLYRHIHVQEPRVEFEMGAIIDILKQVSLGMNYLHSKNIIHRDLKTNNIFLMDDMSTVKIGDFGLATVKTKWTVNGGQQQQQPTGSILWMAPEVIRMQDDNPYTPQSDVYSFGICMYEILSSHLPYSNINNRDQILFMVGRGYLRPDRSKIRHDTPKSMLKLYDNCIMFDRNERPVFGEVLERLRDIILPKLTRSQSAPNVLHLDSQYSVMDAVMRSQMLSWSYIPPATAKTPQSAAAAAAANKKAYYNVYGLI

T2: C. elegans SUR-8 ku242 C233Y (yeast two-hybrid fusion) (C. elegans, UniProt Q22875 1-559)
T2 sequence: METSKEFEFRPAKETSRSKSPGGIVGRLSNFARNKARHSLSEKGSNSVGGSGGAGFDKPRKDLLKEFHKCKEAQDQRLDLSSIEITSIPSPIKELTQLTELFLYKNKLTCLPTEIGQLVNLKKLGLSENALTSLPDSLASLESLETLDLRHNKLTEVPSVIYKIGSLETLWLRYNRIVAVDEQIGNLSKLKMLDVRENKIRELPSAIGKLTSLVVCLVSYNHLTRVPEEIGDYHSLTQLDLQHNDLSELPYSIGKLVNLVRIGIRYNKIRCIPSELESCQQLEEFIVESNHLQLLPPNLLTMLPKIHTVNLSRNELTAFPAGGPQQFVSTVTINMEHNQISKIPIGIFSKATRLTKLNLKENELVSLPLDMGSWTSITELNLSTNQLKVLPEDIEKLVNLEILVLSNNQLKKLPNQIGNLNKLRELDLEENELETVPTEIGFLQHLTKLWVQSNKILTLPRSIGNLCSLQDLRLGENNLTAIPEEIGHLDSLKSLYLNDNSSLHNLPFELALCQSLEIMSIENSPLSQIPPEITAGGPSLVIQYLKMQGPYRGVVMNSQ

T3: C. elegans SUR-8 deletion mutant lacking the N-terminal 88 amino acid non-LRR region (C. elegans, UniProt Q22875 89-559)
T3 construct: Range 89-559 is worked out from 'deletion of the N-terminal 88 amino acid' and the printed length of 559
T3 sequence: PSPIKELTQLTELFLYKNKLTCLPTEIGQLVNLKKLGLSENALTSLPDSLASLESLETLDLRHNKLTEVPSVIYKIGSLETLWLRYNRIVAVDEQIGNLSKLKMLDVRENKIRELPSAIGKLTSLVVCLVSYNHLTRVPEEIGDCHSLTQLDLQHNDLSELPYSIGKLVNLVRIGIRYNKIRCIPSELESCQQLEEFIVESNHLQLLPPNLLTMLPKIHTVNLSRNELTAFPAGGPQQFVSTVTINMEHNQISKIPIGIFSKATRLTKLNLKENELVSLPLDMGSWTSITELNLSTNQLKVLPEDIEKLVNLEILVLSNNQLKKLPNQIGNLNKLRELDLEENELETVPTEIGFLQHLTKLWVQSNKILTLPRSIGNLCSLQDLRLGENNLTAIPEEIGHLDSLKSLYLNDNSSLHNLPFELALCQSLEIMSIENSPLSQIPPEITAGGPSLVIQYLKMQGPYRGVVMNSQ

B1: C. elegans SUR-8 fused to the GAL4 activation domain (other, not shown: large carriers)
chain: T2 sequence with Y233C
notes: Yeast two-hybrid construct: 1.7 kb sur-8 cDNA cloned in-frame into pACT2; also called Ce SUR-8; wild-type SUR-8
B2: wild type LET-60 Ras fused to the GAL4 DNA binding domain (enzyme, UniProt P04386 1-147, looked up)
chain: MKLLSSIEQACDICRLKKLKCSKEKPKCAKCLKNNWECRYSPKTKRSPLTRAHLTEVESRLERLEQLFLLIFPREDLDMILKMDSLQDIKALLTGLFVQDNVNKDAVTDRLASVETDMPLTLRQHRISATSSSEESSNKGQRQLTVSMTEYKLVVVGDGGVGKSALTIQLIQNHFVEEYDPTIEDSYRKQVVIDGETCLLDILDTAGQEEYSAMRDQYMRTGEGFLLVFAVNEAKSFENVANYREQIRRVKDSDDVPMVLVGNKCDLSSRSVDFRTVSETAKGYGIPNVDTSAKTRMGVDEAFYTLVREIRKHRERHDNNKPQKKKKCQIM
B3: MEK-2 MEK (yeast two-hybrid fusion) (enzyme, C. elegans, UniProt Q10664 1-387, looked up)
chain: MSSGKRRNPLGLSLPPTVNEQSESGEATAEEATATVPLEEQLKKLGLTEPQTQRLSEFLQVKEGIKELSEDMLQTEGELGHGNGGVVNKCVHRKTGVIMARKLVHLEIKPSVRQQIVKELAVLHKCNSPFIVGFYGAFVDNNDISICMEYMDGLSLDIVLKKVGRLPEKFVGRISVAVVRGLTYLKDEIKILHRDVKPSNMLVNSNGEIKLCDFGVSGMLIDSMANSFVGTRSYMAPERLTGSHYTISSDIWSFGLSLVELLIGRYPVPAPSQAEYATMFNVAENEIELADSLEEPNYHPPSNPASMAIFEMLDYIVNGPPPTLPKRFFTDEVIGFVSKCLRKLPSERATLKSLTADVFFTQYADHDDQGEFAVFVKGTINLPKLNP
notes: not shown: two-hybrid fusion partner
B4: MPK-1 MAP kinase (yeast two-hybrid fusion) (enzyme, C. elegans, UniProt P39745-2 1-376, looked up)
chain: MADGEAVISTVNNVEEVHGQLFEVAPRYVNLSYIGEGAYGMVASALDTITRDRVAIKKISPFEHQTFCQRTLREIKILNRFKHENIINIQEIIRSETVDSLKDIYIVQCLMETDLYKLLKTQKLSNDHVCYFLYQILRGLKYIHSANVLHRDLKPSNLLLNTTCDLKICDFGLARVTDPQTDHTGFLTEYVATRWYRAPEIMLNSKGYTKSIDVWSVGCILAEMLSNRPLFPGKHYLDQLNLILAVVGSPSNADLQCIINDKARSYLISLPHKPKQPWARLYPGADPRALDLLDKMLTFNPHNRIDIEQALAHPYLEQYYDPGDEPVCEEPFTLEMEFDDLPKEKLKELIWEEAEAHHRRMEAEAAARNNGGQNPV
notes: as for B3

Legend:
[1] = molecular target: T1, wild type LIN-45 Raf (yeast two-hybrid …); assay: yeast two-hybrid
[2] = molecular target: T2, C. elegans SUR-8 ku242 C233Y (yeast …); assay: yeast two-hybrid
[3] = molecular target: T3, C. elegans SUR-8 deletion mutant …; assay: yeast two-hybrid
[4] = molecular target: B1; assay: yeast two-hybrid, His and LacZ reporters

Binder: B1
- binding result [1]: no binding

Binder: B2
- binding result [2]: no binding
- binding result [3]: no binding

Binder: B3
- binding result [4]: no binding

Binder: B4
- binding result [4]: no binding
